Target: T1, mouse CD47 (SPR analyte) (mouse, UniProt Q61735 19-140, limits assumed)
T1 sequence (looked up): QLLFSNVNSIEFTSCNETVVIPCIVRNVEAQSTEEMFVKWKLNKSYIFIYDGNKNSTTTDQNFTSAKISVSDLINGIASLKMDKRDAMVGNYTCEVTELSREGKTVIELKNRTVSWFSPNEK
Assay: SPR (Biacore T200), 25 C; Fab captured by anti-human Fab, mouse CD47 as analyte; steady state
Description: HBS-P+ supplemented with 0.1% BSA was used as running buffer as well as for ligand and analyte dilutions. […] Ligand was captured at a flow rate of 10 μl/min to give an immobilisation level (RL) of ˜ 60 RU. The surface was then allowed to stabilise. Multi-cycle kinetic data was obtained using either human or mouse CD47 as the analyte injected at a flow rate of 30 μl/min. […] For each concentration, the association phases were monitored for 180 seconds, and the dissociation phase was measured for 300 seconds. Regeneration of the sensor chip surface was conducted between cycles using 10 mM glycine pH 2.1. The signal from the reference channel Fcl (no ligand captured) was subtracted from that of Fc2-4 to correct for bulk effect and differences in non-specific binding to a reference surface. The signal from each CD47 blank run (ligand captured but no antigen) was subtracted to correct for differences in surface stability. […] Mouse CD47 binding was analysed using steady state analysis.

B1: positive control anti-CD47 Fab (recombinant Fab using the variable domain sequences used in LB101) (Fab, V domains shown)
VH: QVQLVQSGAEVKKPGESLKISCKGSGYTFTNYYIFWVRQMPGKGLEWMGIINPVDGDTNYNPSFQGQVTISADKSISTAYLQWSSLKASDTAMYYCARGGYTMDRWGQGTLVTVSS
VL: DIVMTQSPLSLPVTPGEPASISCRSSQSLLHSNGYNYLHWYLQKPGQSPQLLIYKVSNRFSGVPDRFSGSGSGTDFTLKISRVEAEDVGVYYCFQNTHTPRTFGGGTKVEIK
A Kd of 165 nM was found for B1 in this work.
